Our source for the isoelectric point values is patent publication US20200405610A1, “COSMETIC COMPOSITION” (Shaanxi Huikang Bio-Tech Co., Ltd., priority 2016, published 2020).

The data set can be described thus: Isoelectric point of the pentapeptide. Format: physicochemical.

Consider “Tyr-Gly-Phe-Gly-Gly (YGFGG; OGP(10-14); listed as Homo sapiens)”, for which the isoelectric point is 5.52.
